This assay has as its target T1, Hexa-histidine-tagged MAGE-A4 (human (open reading frame amplified …, UniProt P43358 1-317)).
T1 construct: MAGE-A4, full-length recombinant; the MAGE-A4 open reading frame was PCR amplified from H1299 genomic DNA; Expressed from pRSET; also called His-MAGE-A4; 6 × His–MAGE-A4; source: E. coli BL21 (DE3), purified
T1 sequence (looked up): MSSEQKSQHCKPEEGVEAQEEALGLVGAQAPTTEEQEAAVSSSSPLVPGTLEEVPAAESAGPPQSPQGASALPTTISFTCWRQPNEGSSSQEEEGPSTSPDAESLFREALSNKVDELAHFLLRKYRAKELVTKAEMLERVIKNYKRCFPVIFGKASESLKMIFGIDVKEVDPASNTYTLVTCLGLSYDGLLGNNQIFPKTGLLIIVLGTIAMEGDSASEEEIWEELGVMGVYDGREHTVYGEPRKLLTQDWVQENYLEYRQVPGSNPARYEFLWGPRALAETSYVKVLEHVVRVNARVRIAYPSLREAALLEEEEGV
The assay is described as follows: pull-down; recombinant 6 × His–MAGE-A4 (1 μg) incubated in 1 ml CSK+1% BSA with GST or GST–RAD18 (0.3 μg), 2 h at 4 °C; glutathione sepharose beads; washed three times in CSK+1% BSA; immunoblot. The conditions noted are these: both partners purified.

B1: GST–RAD18 267-402 (domain or fragment, UniProt Q9NS91 267-402, looked up)
chain: IQGNKQQLIKRHQEFVHMYNAQCDALHPKSAAEIVREIENIEKTRMRLEASKLNESVMVFTKDQTEKEIDEIHSKYRKKHKSEFQLLVDQARKGYKKIAGMSQKTVTITKEDESTEKLSSVCMGQEDNMTSVTNHF
notes: Expressed from pGEX2T; source: E. coli BL21 (DE3), purified
As to B1, the binding result was “binds”.

(Values after paper PMC4935975, “A neomorphic cancer cell-specific role of MAGE-A4 in trans-lesion synthesis” (Nature Communications, 2016).)
